This is an account of results in article PMC9629515.

Read-outs that look alike come from different tables or passages of the source.

Assay [1] addresses cytosolic domain of Aeromonas hydrophila AscV (AscVC; residues 375–721) (Aeromonas hydrophila AH3).
In assay [2] the target is cytosolic domain of Photorhabdus luminescens LscV (LscVC; residues 357–705) (Photorhabdus luminescens (Table 1: Photorhabdus laumondii TT01)). As to the kind of experiment: crystal structure.
Assay [3] has the same target. The experiment in a line: crystal structure. This is another data set of the same source.

One may read the stoichiometry N as the number of molecules, sites or subunits per partner or assembly. As to “cytosolic domain of Aeromonas hydrophila AscV (AscVC; residues 375–721) (domain or fragment)”, the stoichiometry N in assay [1] worked out at 10.
Turning to “cytosolic domain of Photorhabdus luminescens LscV (LscVC; residues 357–705) (domain or fragment)”, the stoichiometry N came out at 8 in assay [2] and 9 in assay [3].
